The source of these data is patent US20100129390A1, “DKK1 AS A UNIVERSAL TUMOR VACCINE FOR IMMUNOTHERAPY OF CANCERS” (priority 2007, published 2010).

In one assay the target is T1, HLA-A*0201 molecules (Homo sapiens, UniProt P04439, D140Y/D185E/D98H/E176V/E277Q/G131W/G231S/I119V/I121R/I166T/I218V/L300P/L318F/N151K/N90K/P208A/P217A/Q86G/Q94H/R138H/R169H/T345S).
T1 construct: endogenous in cells; host or cells: T2 cell line
Description: Peptide-T2 cell binding assay. Particulars: HLA-A*0201 expression by flow cytometry (FIG. 2A). As for the experimental part:
All peptides were synthesized in the Peptide Synthesis Facility at M. D. Anderson Cancer Center. Purity of synthetic peptides was confirmed to be >98% by reverse-phase high-performance liquid chromatography and mass spectrometry. Synthetic peptides were dissolved in dimethylsulfoxide (DMSO; Sigma, St. Louis, Mo.), and stored at −20° C. until use. Peptides binding to HLA-A*0201 molecules were measured using the T2 cell line according to a protocol previously described. Nijman, H. W., et al., Identification of Peptide Sequences that Potentially Trigger HLA-A2.1-Restricted Cytotoxic T Lymphocytes, Eur J. Immunol. 1993, 23:1215-1219. Briefly, T2 cells were incubated overnight with 3 μg/mL of β2-microglobulin (Sigma) and different concentrations of peptides, followed by wash and incubation with FITC-labeled anti-HLA-A*0201 mAb BB7.2 (BD PharMingen). After washing, cells were analyzed for the levels of HLA-A*0201 expression by flow cytometry. HLA-A*0201 expression was quantified according to the formula [(mean fluorescence with peptide−mean fluorescence without peptide)/mean fluorescence without peptide]×100.

For assay [1], the system named is DKK1 peptide-specific T-cell lines. Description: T-cell proliferation assay (3[H]-thymidine). Format: cell-based, human. Particulars: after 3 to 4 rounds of in vitro stimulation; P<0.01 compared with unpulsed DC. As for the experimental part: DKK1-specific T cells were generated from PBMCs of HLA-A*0201^+ blood donors and myeloma patients by repeated stimulation of autologous T cells with DKK1 peptide-loaded mature DCs. Briefly, the non-adherent cells of PBMCs (2×10^6/mL; used as T-cell population) were cocultured in 50 mL tissue-culture flasks at 37° C. in 5% CO2 for 7-10 days in Aim-V medium supplemented with 10% pooled human serum (T-cell medium) with mature DCs (2×10^5/mL) preincubated with DKK1 peptides at a final concentration of 50 μg/mL at 37° C. for 2 h. After culture, T cells were collected and restimulated with DKK1 peptide-pulsed autologous mature DCs every week, and the cultures were fed every 5 days with fresh medium containing recombinant IL-2 (20 IU/mL), IL-7 (5 ng/mL) and IL-15 (5 ng/mL; all from R&D System). Induction of DKK1-specific T cells was monitored weekly using T-cell proliferation assay and DKK1 peptide-HLA-A*0201 tetramers (synthesized by MHC Tetramer Laboratory, Baylor College of Medicine, Houston, Tex.). […]
T cells (5×10^4/100 μL/well) were seeded into 96-well U-bottom tissue culture plates (Corning Incorporated, Corning, N.Y.) in T-cell medium. […] T-cell proliferation was measured after overnight incubation with ^3[H]-thymidine ([…]/0.037 MBq/well). Results are expressed as mean count per minute (CPM) of triplicate cultures.

The test system of assay [2] is HLA-A*0201 transgenic mice. Description: In vivo immunogenicity of the peptides. Particulars: 100 μg per mouse s.c., single immunization, splenocytes two weeks after. The text has this: HLA-A*0201 transgenic (Tg[HLA-A2.1]) mice were purchased from Jackson Laboratory (Bar Harbor, Me.). Ishioka, G. Y., et al., Utilization of MHC Class I Transgenic Mice for Development of Minigene DNA Vaccines Encoding Multiple HLA-Restricted CTL Epitopes, J. Immunol. 1999, 162:3915-3925; Alexander, J., et al., A Decaepitope Polypeptide Primes for Multiple CD8+ IFN-Gamma and Th Lymphocyte Responses: Evaluation of Multiepitope Polypeptides as a Mode for Vaccine Delivery, J. Immunol. […] Mice were maintained at the animal facility and studies were approved by the Institutional Animal Care and Use Committees of The University of Texas M. D. Anderson Cancer Center.
For immunization, peptides were diluted in PBS at room temperature, mixed, and emulsified with an equal volume of incomplete Freund's adjuvant (Sigma). […]
To examine whether the peptides were able to immunize HLA-A*0201 transgenic mice, we injected 100 μg per mouse of peptides P20 (SEQ. ID NO. 1) and P66v (SEQ. ID. NO. 4), and Flu-matrix peptide as positive control s.c. to the mice (3 mice per peptide) according to established protocol. […] In vivo immunization successfully generated peptide-specific T cells, detected as specific IFN-γ-expressing (FIG. 2C) and peptide (P20 or P66v)-HLA-A*0201 tetramer^+ CD8^+ T cells (FIG. 2D).

The target in another assay is HLA-ABC. Description: cell-based or functional assay.
The target in assay [3] is T2, HLA-A*0201 molecules on T2 cells (human).
T2 construct: MHC class I molecule on T2 cells; also called HLA-A2.1
Description: cell-based or functional assay.

For assay [4], the system named is murine myeloma cell line tumor-A. Description: Vaccination and murine myeloma challenge. The assay is classed as in vivo, Balb/c mice. To be noted: vaccinated three times, s.c. challenge with tumor-A 1×10^6 cells/mouse. Here is the method:
Balb/c mice (4 per group) were s.c. vaccinated three times with murine DKK1 protein (50 ug/mouse) at a 30-day interval followed by s.c. challenge with murine myeloma cell line tumor-A (1×10^6 cells/mouse) after one weeks of third vaccination. Tumor burdens were measured twice every wk. Mice were euthanized when s.c. tumors reached 225 mm^2 or when mice became moribund. FIG. 18A is a graph depicting ELISA titers of anti-DKK1 antibody in the serum of immunized mice. Results shown in FIG. 18B are survival of mice that received DKK1 protein vaccinations and PBS control. Splenocytes were isolated from survival mice and pooled, and restimulated with irradiated tumor-A for 5 d. […]
Balb/c mice (5 per group) were s.c. vaccinated three times with three DKK1 peptides (100 ug/mouse) at a 14-day interval followed by s.c. challenge with murine myeloma cell line tumor-A (1×10^6 cells/mouse) after one week of third vaccination. Tumor burdens were measured twice every wk. […]
Balb/c mice (5 per group) were i.m. vaccinated three times with murine DKK1 DNA (50 ug/mouse) at a 14-day interval followed by s.c. challenge with murine myeloma cell line tumor-A (1×10^6 cells/mouse) after one weeks of third vaccination. Tumor burdens were measured twice every wk. […]

In assay [5] the target is T2, HLA-A*0201 molecules on T2 cells. Description: peptide-T2 cell binding assay, flow cytometry of surface HLA-A*0201 with mAb BB7.2. As for the experimental part:
All peptides were synthesized in the Peptide Synthesis Facility at M. D. Anderson Cancer Center. Purity of synthetic peptides was confirmed to be >98% by reverse-phase high-performance liquid chromatography and mass spectrometry. Synthetic peptides were dissolved in dimethylsulfoxide (DMSO; Sigma, St. Louis, Mo.), and stored at −20° C. until use. […] Nijman, H. W., et al., Identification of Peptide Sequences that Potentially Trigger HLA-A2.1-Restricted Cytotoxic T Lymphocytes, Eur J. Immunol. 1993, 23:1215-1219.

Take “ILYPGGNKV (listed as Homo Sapiens) [P66v]”: the binding affinity result in the assay with HLA-A*0201 molecules is “much higher binding affinity than P66”. Besides, the “T-cell line proliferation in response to autologous DCs pulsed with peptide” value in assay [1] was “proliferated in response to autologous DCs pulsed, but not unpulsed”. Besides, in assay [2], the “immunogenicity in immunizing the mice” value is on record as “as immunogenic as the Flu-matrix peptide”.

Consider “ALGGHPLLGV (listed as Homo Sapiens) [P20]”, for which the “T-cell line proliferation in response to autologous DCs pulsed with peptide” value in assay [1] is “proliferated in response to autologous DCs pulsed, but not unpulsed”. The “immunogenicity in immunizing the mice” value in assay [2] is recorded as “as immunogenic as the Flu-matrix peptide”. Molecule anti-HLA-ABC mAb W6/32 (antibody) gave an inhibition of T cell-mediated cytotoxicity against peptide-pulsed T2 cells (51Cr release) with HLA-ABC of 70 to 80 % inhibition.

anti-HLA-A*0201 mAb BB7.2 (antibody) yielded an inhibition of T cell-mediated cytotoxicity against peptide-pulsed T2 cells (51Cr release) in assay [3] of 70 to 80 % inhibition.

B1: DKK1 Protein Vaccine: murine DKK1 protein, 50 ug/mouse s.c. (protein, UniProt O54908 32-272, looked up)
Dickkopf-related protein 1: TLNSVLINSNAIKNLPPPLGGAGGQPGSAVSVAPGVLYEGGNKYQTLDNYQPYPCAEDEECGSDEYCSSPSRGAAGVGGVQICLACRKRRKRCMRHAMCCPGNYCKNGICMPSDHSHFPRGEIEESIIENLGNDHNAAAGDGYPRRTTLTSKIYHTKGQEGSVCLRSSDCAAGLCCARHFWSKICKPVLKEGQVCTKHKRKGSHGLEIFQRCYCGEGLACRIQKDHHQASNSSRLHTCQRH
As for B1, the “protection against murine MM challenge” value in assay [4] is given as “can Protect Murine MM Challenge”.

As to ILYPGGNKV (Heteroclitic variant of P66) [DKK1 heteroclitic peptide P66v], the binding result in assay [5] was “binds”.

B2: DKK1 peptide P66 (peptide)
peptide: ILYPGGNKY
notes: Synthetic peptide; the end of the range follows from the length of 9 residues
As to B2, the binding result in assay [5] was “binds”.

B3: DKK1 peptide P20 (peptide)
peptide: ALGGHPLLGV
notes: Synthetic peptide, purity >98%; the end of the range follows from the length of 10 residues
In the case of B3, in assay [5], the binding result is “binds”. Same read-out and setting: the same measure for YLGGHPLLGV (Heteroclitic variant of P20) [DKK1 heteroclitic peptide Py20]: “binds”.
